Blank lines part the entries; values can stand above or below the binder they belong to. *1 amine or outer side, *2 acyl side, *3 side chain or, on linkers, in order; H or OH if unused. Where no end group is shown, it is not given here. [ ]: non-standard residue; d: D form. Asp(NHCH2Ph) = Asp side-chain benzylamide, O=C(C[C@H](N[*:1])C(=O)[*:2])NCc1ccccc1; Cys(CH2-Ph) = S-benzyl-Cys, O=C([C@H](CSCc1ccccc1)N[*:1])[*:2]; Phe(3-CH2NH2) = O=C([C@H](Cc1cccc(CN[*:3])c1)N[*:1])[*:2]; Bip = N[C@@H](Cc1ccc(-c2ccccc2)cc1)C(=O)O; d(pS) = N[C@H](COP(=O)(O)O)C(=O)O; hCha = N[C@@H](CCC1CCCCC1)C(=O)O; pS = N[C@@H](COP(=O)(O)O)C(=O)O; Cit = NC(=O)NCCC[C@H](N)C(=O)O; βAla = NCCC(=O)O
Biological target: PCSK9-WT protein (human proprotein convertase subtilisin/kexin type 9) (human, UniProt Q8NBP7 31-692, limits assumed)
Assay: cell-based or functional assay

Chain of PCSK9-WT protein (human proprotein convertase subtilisin/kexin type 9) (Q8NBP7 31-692 limits assumed): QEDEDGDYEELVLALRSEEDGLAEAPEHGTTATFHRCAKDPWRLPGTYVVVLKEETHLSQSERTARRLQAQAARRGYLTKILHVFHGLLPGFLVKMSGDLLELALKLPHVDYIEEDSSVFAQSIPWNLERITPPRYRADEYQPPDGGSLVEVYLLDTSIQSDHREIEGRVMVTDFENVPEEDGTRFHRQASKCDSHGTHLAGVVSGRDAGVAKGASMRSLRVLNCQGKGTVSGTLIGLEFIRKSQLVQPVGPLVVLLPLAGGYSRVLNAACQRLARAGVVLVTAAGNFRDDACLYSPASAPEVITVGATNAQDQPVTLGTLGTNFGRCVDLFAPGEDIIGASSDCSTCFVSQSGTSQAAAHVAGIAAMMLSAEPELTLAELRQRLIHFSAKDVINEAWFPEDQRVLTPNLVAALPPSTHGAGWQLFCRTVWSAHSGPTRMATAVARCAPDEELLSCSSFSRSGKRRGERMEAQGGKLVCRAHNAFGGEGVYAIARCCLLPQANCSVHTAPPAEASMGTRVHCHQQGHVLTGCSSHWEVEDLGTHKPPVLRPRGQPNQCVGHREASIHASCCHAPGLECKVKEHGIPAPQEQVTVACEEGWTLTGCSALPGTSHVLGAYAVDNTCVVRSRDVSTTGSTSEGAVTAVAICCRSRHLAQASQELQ

Binder: [βAla][Phe(3-CH2NH2)]V[d(pS)]FW [SRX56: β-Ala-Phe(3-CH2NH2)-Val-D-Ser(p)-Phe-Trp]
Cell Activity of Exemplified Peptides (FACS of cell surface LDLR, HuH7/shPCSK9 cells): > 30 % inhibition above control at 100 uM

Binder: Ac-Trp-Ala-[pS] [SRX69: Ac-Trp-Ala-Ser(p)]
Cell Activity of Exemplified Peptides (FACS of cell surface LDLR, HuH7/shPCSK9 cells): > 30 % inhibition below control at 100 uM

Binder: TL[Asp(NHCH2Ph)]TWSS[pS] [SRX61: Thr-Leu-Asp(NHCH2Ph)-Thr-Trp-Ser-Ser-Ser(p)]
Cell Activity of Exemplified Peptides (FACS of cell surface LDLR, HuH7/shPCSK9 cells): > 30 % inhibition above control at 100 uM

Binder: TL[hCha]TWSS[pS] [SRX62: Thr-Leu-Gly(CH2CH2cyclohexyl)-Thr-Trp-Ser-Ser-Ser(p)]
Cell Activity of Exemplified Peptides (FACS of cell surface LDLR, HuH7/shPCSK9 cells): > 30 % inhibition above control at 100 uM

Binder: VLELYW [SRX65: Val-Leu-Glu-Leu-Tyr-Trp]
Cell Activity of Exemplified Peptides (FACS of cell surface LDLR, HuH7/shPCSK9 cells): > 30 % inhibition above control at 100 uM

Binder: TL[Cys(CH2-Ph)]TWSS[pS] [SRX60: Thr-Leu-Cys(CH2-Ph)-Thr-Trp-Ser-Ser-Ser(p)]
Cell Activity of Exemplified Peptides (FACS of cell surface LDLR, HuH7/shPCSK9 cells): > 30 % inhibition above control at 100 uM

Binder: LDLFFS [SRX66: Leu-Asp-Leu-Phe-Phe-Ser]
Cell Activity of Exemplified Peptides (FACS of cell surface LDLR, HuH7/shPCSK9 cells): > 30 % inhibition above control at 100 uM

Further lines, results first:

Cell Activity of Exemplified Peptides (FACS of cell surface LDLR, HuH7/shPCSK9 cells): > 30 % inhibition below control at 100 uM
Binder: [Bip]-Ala-[pS]-morpholine [SRX73: Phe(4-Ph)-Ala-Ser(p)-morpholine]

cell surface LDLR levels, FACS in HuH7 cells, 10 nM recombinant PCSK9: > 60 % reversal
Binder: VYV[Cit]FW-NHEt [SRX314: Val-Tyr-Val-Cit-Phe-Trp-NHEt]

cell surface LDLR levels, FACS in HuH7 cells, 10 nM recombinant PCSK9: 60 % reversal
B1: SRX310: Val-Tyr-Val-Cit-Phe-Trp-NH2 (peptide)
peptide: VYV[Cit]FW-NH2
modifications: N-terminus assumed
SMILES: CC(C)[C@H](N)C(=O)N[C@@H](Cc1ccc(O)cc1)C(=O)N[C@H](C(=O)N[C@@H](CCCNC(N)=O)C(=O)N[C@@H](Cc1ccccc1)C(=O)N[C@@H](Cc1c[nH]c2ccccc12)C(N)=O)C(C)C

Source: patent US10287317B2, “Proprotein convertase subtilisin kexin type 9 (PCSK9) allosteric binding ligands to modulate serum low density lipoprotein (LDL) levels” (SRX Cardio, LLC, priority 2013, dated 2019)
